Experimental data reported in patent US20240067727A1 (OSE IMMUNOTHERAPEUTICS, published 2024).

B1: anti PD-1*1 IL7 W142H*1 N297A DHS (other)
chain: DKTHTCPPCPAPELLGGPSVFLFPPKPKDTLMISRTPEVTCVVVDVSHEDPEVKFNWYVDGVEVHNAKTKPREEQYASTYRVVSVLTVDHHDWLNGKEYKCKVSNKALPAPIEKTISKAKGQPREPQVYTLPPCRDELTKNQVSLWCLVKGFYPSDIAVEWESNGQPENNYKTTPPVLDSDGSFFLYSKLTVDKSRWQQGNVFSCSVMHEALHSHYTQKSLSLSPGK
heavy: QIQLVQSGSELKKPGASVKVSCKASGYTFTHYAMNWVRQAPGQGLEWMGWINTNTGEPTYAQGFTGRFVFSLDTSVSTAYLQISSLKAEDTAVYYCAREREPGMDNWGQGTLVTVSSASTKGPSVFPLAPSSKSTSGGTAALGCLVKDYFPEPVTVSWNSGALTSGVHTFPAVLQSSGLYSLSSVVTVPSSSLGTQTYICNVNHKPSNTKVDKKVEPKSCDKTHTCPPCPAPELLGGPSVFLFPPKPKDTLMISRTPEVTCVVVDVSHEDPEVKFNWYVDGVEVHNAKTKPREEQYASTYRVVSVLTVDHHDWLNGKEYKCKVSNKALPAPIEKTISKAKGQPREPQVCTLPPSRDELTKNQVSLSCAVKGFYPSDIAVEWESNGQPENNYKTTPPVLDSDGSFFLVSKLTVDKSRWQQGNVFSCSVMHEALHSHYTQKSLSLSPGKGGGGSGGGGSGGGGSDCDIEGKDGKQYESVLMVSIDQLLDSMKEIGSNCLNNEFNFFKRHICDANKEGMFLFRAARKLRQFLKMNSTGDFDLHLLKVSEGTTILLNCTGQVKGRKPAALGEAQPTKSLEENKSLKEQKKLNDLCFLKRLLQEIKTCHNKILMGTKEH
light: DVVMTQSPLSLPVTLGQPASISCRSSQSLVHANTNTYLEWYQQRPGQSPRLLIYKVSNRFSGVPDRFSGSGSGTDFTLKISRVEAEDVGVYYCFQGTHVPNTFGQGTKLEIKRTVAAPSVFIFPPSDEQLKSGTASVVCLLNNFYPREAKVQWKVDNALQSGNSQESVTEQDSKDSTYSLSSTLTLSKADYEKHKVYACEVTHQGLSSPVTKSFNRGEC
notes: also called IL7 W142H N297A DHS
B2: anti PD-1*1 IL7 W142H*1 N297A LS (other)
chain: DKTHTCPPCPAPELLGGPSVFLFPPKPKDTLMISRTPEVTCVVVDVSHEDPEVKFNWYVDGVEVHNAKTKPREEQYASTYRVVSVLTVLHQDWLNGKEYKCKVSNKALPAPIEKTISKAKGQPREPQVYTLPPCRDELTKNQVSLWCLVKGFYPSDIAVEWESNGQPENNYKTTPPVLDSDGSFFLYSKLTVDKSRWQQGNVFSCSVLHEALHSHYTQKSLSLSPGK
heavy: QIQLVQSGSELKKPGASVKVSCKASGYTFTHYAMNWVRQAPGQGLEWMGWINTNTGEPTYAQGFTGRFVFSLDTSVSTAYLQISSLKAEDTAVYYCAREREPGMDNWGQGTLVTVSSASTKGPSVFPLAPSSKSTSGGTAALGCLVKDYFPEPVTVSWNSGALTSGVHTFPAVLQSSGLYSLSSVVTVPSSSLGTQTYICNVNHKPSNTKVDKKVEPKSCDKTHTCPPCPAPELLGGPSVFLFPPKPKDTLMISRTPEVTCVVVDVSHEDPEVKFNWYVDGVEVHNAKTKPREEQYASTYRVVSVLTVLHQDWLNGKEYKCKVSNKALPAPIEKTISKAKGQPREPQVCTLPPSRDELTKNQVSLSCAVKGFYPSDIAVEWESNGQPENNYKTTPPVLDSDGSFFLVSKLTVDKSRWQQGNVFSCSVLHEALHSHYTQKSLSLSPGKGGGGSGGGGSGGGGSDCDIEGKDGKQYESVLMVSIDQLLDSMKEIGSNCLNNEFNFFKRHICDANKEGMFLFRAARKLRQFLKMNSTGDFDLHLLKVSEGTTILLNCTGQVKGRKPAALGEAQPTKSLEENKSLKEQKKLNDLCFLKRLLQEIKTCHNKILMGTKEH
light: DVVMTQSPLSLPVTLGQPASISCRSSQSLVHANTNTYLEWYQQRPGQSPRLLIYKVSNRFSGVPDRFSGSGSGTDFTLKISRVEAEDVGVYYCFQGTHVPNTFGQGTKLEIKRTVAAPSVFIFPPSDEQLKSGTASVVCLLNNFYPREAKVQWKVDNALQSGNSQESVTEQDSKDSTYSLSSTLTLSKADYEKHKVYACEVTHQGLSSPVTKSFNRGEC
notes: Fc mutant of anti PD-1*1 IL7W142H*1; also called IL7 W142H N297A LS

Biological target: T1, recombinant hPD1 (Sino Biologicals, reference 10377-H08H) (human, UniProt Q15116 25-167)
T1 construct: also called Human recombinant PD-1; rPD1
Assay: ELISA: human recombinant PD-1 immobilised, detection with anti-human Fc-peroxidase, TMB
Protocol: PD-1 binding ELISA assay. Human recombinant PD-1 (rPD1) protein was immobilized, and antibodies were added at different concentrations. Revelation was performed with an anti-human Fc antibody coupled to peroxidase. Colorimetry was determined at 450 nm using TMB substrate. The bifunctional molecules comprising an IL7 W142H N297A variant with 1 anti PD-1 arm ( ) was tested as control.

T1 sequence (Q15116 25-167 limits assumed): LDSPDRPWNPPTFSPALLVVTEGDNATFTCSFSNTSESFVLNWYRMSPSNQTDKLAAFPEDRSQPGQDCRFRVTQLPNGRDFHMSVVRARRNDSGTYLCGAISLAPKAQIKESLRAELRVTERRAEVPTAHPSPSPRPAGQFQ

Binder	EC50 (read off the curve) [µg/mL]
B1	~0.05
B2	~0.03
